Reference: patent publication US20250197467A1 (BRIGHT PEAK THERAPEUTICS, published 2025)

T1: IL-18 receptor (IL-18Rαβ) on cells (UniProt Q13478 19-541; O95256 20-599, limits assumed)
T1 sequence (looked up) 1: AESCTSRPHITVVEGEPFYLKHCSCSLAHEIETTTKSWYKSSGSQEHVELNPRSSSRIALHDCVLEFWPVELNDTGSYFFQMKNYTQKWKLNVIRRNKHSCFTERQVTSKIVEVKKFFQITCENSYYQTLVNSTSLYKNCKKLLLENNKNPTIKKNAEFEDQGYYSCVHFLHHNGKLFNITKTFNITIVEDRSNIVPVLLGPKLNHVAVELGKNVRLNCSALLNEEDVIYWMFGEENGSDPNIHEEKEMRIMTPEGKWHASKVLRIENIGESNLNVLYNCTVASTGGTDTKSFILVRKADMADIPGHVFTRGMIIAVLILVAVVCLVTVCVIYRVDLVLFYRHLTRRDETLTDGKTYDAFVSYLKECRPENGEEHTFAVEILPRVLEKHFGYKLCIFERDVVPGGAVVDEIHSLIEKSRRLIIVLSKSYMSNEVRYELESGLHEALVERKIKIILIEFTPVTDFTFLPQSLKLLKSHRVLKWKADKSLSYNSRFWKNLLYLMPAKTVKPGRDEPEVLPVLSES
T1 sequence (looked up) 2: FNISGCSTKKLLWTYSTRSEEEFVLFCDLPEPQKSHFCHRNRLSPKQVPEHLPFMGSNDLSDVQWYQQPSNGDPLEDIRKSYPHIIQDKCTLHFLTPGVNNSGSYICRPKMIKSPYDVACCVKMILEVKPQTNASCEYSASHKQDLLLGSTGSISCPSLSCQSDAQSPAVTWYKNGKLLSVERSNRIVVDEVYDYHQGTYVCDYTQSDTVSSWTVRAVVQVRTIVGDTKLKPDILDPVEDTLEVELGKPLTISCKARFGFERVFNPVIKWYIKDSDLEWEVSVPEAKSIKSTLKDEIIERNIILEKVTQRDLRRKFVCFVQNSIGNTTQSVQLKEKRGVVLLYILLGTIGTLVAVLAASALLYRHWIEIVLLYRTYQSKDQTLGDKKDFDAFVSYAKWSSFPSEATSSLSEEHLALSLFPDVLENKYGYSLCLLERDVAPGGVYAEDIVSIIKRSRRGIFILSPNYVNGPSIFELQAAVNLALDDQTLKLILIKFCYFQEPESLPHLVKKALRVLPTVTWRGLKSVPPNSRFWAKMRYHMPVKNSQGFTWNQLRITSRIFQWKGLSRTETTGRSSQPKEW

T2: IL-18 receptor alpha subunit (Biotinylated for capture on streptavidin (SAX2) biosensors. The site and tag are not given in the patent.)
T2 construct: also called IL18 receptor alpha (Acro, IL1-H82E7); IL-18Ra
T2 chain: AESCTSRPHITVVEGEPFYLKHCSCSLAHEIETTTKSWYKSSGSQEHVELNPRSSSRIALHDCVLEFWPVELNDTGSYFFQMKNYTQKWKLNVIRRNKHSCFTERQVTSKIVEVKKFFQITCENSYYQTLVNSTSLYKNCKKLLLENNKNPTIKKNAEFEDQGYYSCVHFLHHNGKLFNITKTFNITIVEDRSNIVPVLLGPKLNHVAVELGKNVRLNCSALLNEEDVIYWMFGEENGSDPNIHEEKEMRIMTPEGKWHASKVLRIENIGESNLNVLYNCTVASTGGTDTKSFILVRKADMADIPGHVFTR


Experiments:
[1] = target: T1, IL-18 receptor (IL-18Rαβ) on cells; experiment: cell-based or functional assay
[2] = target: T1, IL-18 receptor (IL-18Rαβ) on cells; experiment: cell-based or functional assay; remark: listed apart in the source
[3] = target: T1, IL-18 receptor (IL-18Rαβ) on cells; experiment: cell-based or functional assay; remark: listed apart in the source
[4] = target: T1, IL-18 receptor (IL-18Rαβ) on cells; experiment: cell-based or functional assay; remark: listed apart in the source
[5] = target: T1, IL-18 receptor (IL-18Rαβ) on cells; experiment: cell-based or functional assay; remark: listed apart in the source
[6] = target: T2, IL-18 receptor alpha subunit; experiment: BLI (Octet R8), IL-18 receptor alpha on streptavidin (SAX2) biosensor, analyte 1000 nM to 1.25 nM in 1:3 dilutions
Text: Act-IL18 candidates C185, C314, and C315 were digested as described above and characterized by BLI. Briefly, undigested and digested samples were compared for their binding against IL18 receptor on an Octet R8 (Sartorius).

| Binder | Hek Blue reporter assay EC50 [1] [pM] | Fold potency loss vs C086 [2] [fold] | HEK-blue EC50 [2] [nM] | IFNg release PBMCs assay EC50 [3] [nM] | HEK-Blue IL-18R reporter EC50 [4] [pM] | IFNγ release NK-92 assay EC50 [5] [nM] | binding result [6] |
| --- | --- | --- | --- | --- | --- | --- | --- |
| C137 (ligand) YFGKLKSKLSIIRNLNDQVLFIDQGNRPLFEDMTDSDARDNAPRTIFIISMYADSQPRGMAVAISVKCEKISTLSAENKIISFKEMNPPDNIKDTKSDIIFFQRSVPGHDNKMQFESSSYEGYFLAAEKERDLFKLILKKEDELGDRSIMFTVQNEGGGGSGGGGSGGGGSNIVPVLLGPKLNHVAVELGKNVRLNCSALLNEEDVIYWMFGEENGSDPNIHEEKEMRIMTPEGKWHASKVLRIENIGESNLNVLYNCTVASTGGTDTKSFILVRKADHHHHHH | 2.08 | 49 | 2.08 |  |  |  |  |
| C086 (SEQ ID NO: 30) (ligand) YFGKLKSKLSIIRNLNDQVLFIDQGNRPLFEDMTDSDARDNAPRTIFIISMYADSQPRGMAVAISVKCEKISTLSAENKIISFKEMNPPDNIKDTKSDIIFFQRSVPGHDNKMQFESSSYEGYFLAAEKERDLFKLILKKEDELGDRSIMFTVQNED | 0.057 |  | 0.04 | 0.0022 | 0.034 | 0.0018 |  |
| C127 (ligand) MAAEPVEDNCINFVAMKFIDNTLYFIAEDDENLESDSGGPGPAGMKGLPGSYFGKLKSKLSIIRNLNDQVLFIDQGNRPLFEDMTDSDARDNAPRTIFIISMYADSQPRGMAVAISVKCEKISTLSAENKIISFKEMNPPDNIKDTKSDIIFFQRSVPGHDNKMQFESSSYEGYFLAAEKERDLFKLILKKEDELGDRSIMFTVQNED | 295 | 7000 | 295 |  |  |  |  |
| C136 (ligand) YFGKLKSKLSIIRNLNDQVLFIDQGNRPLFEDMTDSDARDNAPRTIFIISMYADSQPRGMAVAISVKCEKISTLSAENKIISFKEMNPPDNIKDTKSDIIFFQRSVPGHDNKMQFESSSYEGYFLAAEKERDLFKLILKKEDELGDRSIMFTVQNEGGSGGSNIVPVLLGPKLNHVAVELGKNVRLNCSALLNEEDVIYWMFGEENGSDPNIHEEKEMRIMTPEGKWHASKVLRIENIGESNLNVLYNCTVASTGGTDTKSFILVRKADHHHHHH | 0.884 | 21 | 0.884 |  |  |  |  |

More lines, now with the values ahead:

| Hek Blue reporter assay EC50 [1] [pM] | Fold potency loss vs C086 [2] [fold] | HEK-blue EC50 [2] [nM] | IFNg release PBMCs assay EC50 [3] [nM] | HEK-Blue IL-18R reporter EC50 [4] [pM] | IFNγ release NK-92 assay EC50 [5] [nM] | binding result [6] | Binder |
| --- | --- | --- | --- | --- | --- | --- | --- |
| 2790 | 60900 | 2560 |  |  | 210 | no binding | C185 (ligand) MAAEPVEDNCINFVAMKFIDNTLYFIAEDDENLESDPLGYFGKLKSKLSIIRNLNDQVLFIDQGNRPLFEDMTDSDARDNAPRTIFIISMYADSQPRGMAVAISVKCEKISTLSAENKIISFKEMNPPDNIKDTKSDIIFFQRSVPGHDNKMQFESSSYEGYFLAAEKERDLFKLILKKEDELGDRSIMFTVQNED |
| 404 |  | 404 |  |  |  |  | C190 (ligand) MAAEPVEDNCINFVAMKFIDNTLYFIAEDDENLESDYFGKLKSKLSIIRNLNDQVLFIDQGNRPLFEDMTDSDARDNAPRTIFIISMYADSQPRGMAVAISVKCEKISTLSAENKIISFKEMNPPDNIKDTKSDIIFFQRSVPGHDNKMQFESSSYEGYFLAAEKERDLFKLILKKEDELGDRSIMFTVQNED |
| 198 |  | 198 |  |  |  |  | C190 + MMP9 (ligand) MAAEPVEDNCINFVAMKFIDNTLYFIAEDDENLESDYFGKLKSKLSIIRNLNDQVLFIDQGNRPLFEDMTDSDARDNAPRTIFIISMYADSQPRGMAVAISVKCEKISTLSAENKIISFKEMNPPDNIKDTKSDIIFFQRSVPGHDNKMQFESSSYEGYFLAAEKERDLFKLILKKEDELGDRSIMFTVQNED |
